The target of experiment [1] is T1, Salmonella flagellin (Salmonella, UniProt P06177 2-505, limits assumed).
T1 sequence: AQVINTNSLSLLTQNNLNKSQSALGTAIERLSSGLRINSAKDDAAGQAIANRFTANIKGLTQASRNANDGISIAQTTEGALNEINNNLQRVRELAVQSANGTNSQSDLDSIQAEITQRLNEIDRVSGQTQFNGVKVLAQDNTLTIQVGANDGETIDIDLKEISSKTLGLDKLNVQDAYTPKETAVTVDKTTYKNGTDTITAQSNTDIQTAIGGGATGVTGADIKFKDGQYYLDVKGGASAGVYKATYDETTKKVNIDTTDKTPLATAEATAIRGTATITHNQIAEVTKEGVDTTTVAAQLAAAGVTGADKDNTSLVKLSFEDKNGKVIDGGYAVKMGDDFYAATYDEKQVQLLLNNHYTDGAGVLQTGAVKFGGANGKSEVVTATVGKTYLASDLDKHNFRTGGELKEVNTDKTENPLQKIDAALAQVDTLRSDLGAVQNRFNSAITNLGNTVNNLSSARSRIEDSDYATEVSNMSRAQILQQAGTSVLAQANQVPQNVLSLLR
In words: BIACore (SPR); Salmonella flagellin.

Experiment [2] deals with T2, recombinant SM flagellin protein (a/a 1-156) (Salmonella muenchen, UniProt P06177 1-156).
T2 construct: The antigen is amino acids 1-156 of S. muenchen flagellin, expressed in E. coli from pET 30C behind the His tag; also called recombinant S. muenchen flagellin; fusion protein; not shown: N-terminal His tag and vector-encoded residues of pET 30C
T2 sequence: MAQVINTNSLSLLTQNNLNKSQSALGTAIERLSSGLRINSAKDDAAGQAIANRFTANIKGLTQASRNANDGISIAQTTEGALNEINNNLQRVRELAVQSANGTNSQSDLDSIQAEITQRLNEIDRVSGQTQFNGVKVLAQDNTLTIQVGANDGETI
In words: ELISA of hybridoma supernatants for anti-SM flagellin reactivity. (In an ELISA, binding on a coated surface is turned into a signal by an enzyme label.)

Experiment [3] has as its target T3, Pseudomonas flagellin (Pseudomonas, UniProt P21184 2-394).
T3 chain: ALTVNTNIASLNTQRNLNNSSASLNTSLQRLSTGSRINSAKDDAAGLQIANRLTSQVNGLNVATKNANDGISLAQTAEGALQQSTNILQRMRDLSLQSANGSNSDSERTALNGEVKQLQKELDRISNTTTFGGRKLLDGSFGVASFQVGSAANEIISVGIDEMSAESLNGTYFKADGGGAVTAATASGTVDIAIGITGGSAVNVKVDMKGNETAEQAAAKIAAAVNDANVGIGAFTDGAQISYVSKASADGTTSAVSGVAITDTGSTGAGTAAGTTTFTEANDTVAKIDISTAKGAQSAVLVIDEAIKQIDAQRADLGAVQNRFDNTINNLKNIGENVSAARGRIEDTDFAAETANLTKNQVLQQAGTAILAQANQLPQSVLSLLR
The experiment can be described thus: BIACore (SPR); Pseudomonas flagellin. (In general: SPR reads the build-up and loss of mass on a sensor chip optically.)

The target of experiment [4] is T4, Salmonella muenchen Flagellin (supplied by Inotek) (Salmonella muenchen, UniProt P06177 2-505).
T4 sequence: T1 sequence
In words: competition ELISA on plate-coated S. muenchen flagellin; competitor biotinylated mAb 741 at 0.6 µg/ml; mouse control antibody.

B1: human mAb 763 (antibody, V domains shown)
VH: EVQLLESGGALVQPGGSLRLSCAASGFTFSSYAMSWARQAPGKGLEWLSGISGSADNTYYAESVKGRFTTSRDNSMNMLYLQMNSLRDEDTAFYYCAKGDQDRGPLEFWGQGTLVTVSS
VL: SYELTQPPSVSVSPGQTARITCSGDALPKQYAYWYQQKPGQAPVLLIYQDTKRPSGIPERFSGSSSGTTVALTISGVQAEDEADYYCQSADSNDSYYVFGTGTKVTVL
B1: the Kd was around 0.1 nM in experiment [1] and around 1000 nM in experiment [3]. Also, in experiment [2], the binding result is listed as “binds”.

B2: murine mAb 741 (antibody, V domains shown)
VH: QVQLQQSGAELVGPGASVTLSCKASGHTFTDYEMHWVKQTPVHGLEWIGGIDPETGGTAYNQKLKGEATLTADKSSNTAYMELRSLTSEDSAVYYCTIYLDYWGRGTTLTVSS
VL: QIVLTQSPAIMSASPGEKVTMTCSANSSINYMHWYQQKPGTSPKRWIYDTTILASGVPARFSGSGSGTSYSLTISSMEAEDAATYYCHQRSSYPFTFGSGTKLEIK
notes: also called mouse control antibody
Turning to B2, the IC50 in experiment [4] stood at 1.9 µg/mL.

What is called Kd is the constant that tells how readily two partners part at equilibrium. As usually defined, the IC50 is the concentration that gives 50% inhibition.

(Values after patent US20090191208A1 (INOTEK PHARMACEUTICALS, published 2009).)
